Consider one substance from PMC11728977, “Crystallographic, kinetic, and calorimetric investigation of PKA interactions with L-type calcium channels and Rad GTPase” (The Journal of Biological Chemistry, 2024).

For series [1], the system named is CC(C)C[C@H](NC(=O)[C@H](Cc1c[nH]cn1)NC(=O)[C@H](Cc1ccccc1)NC(=O)[C@H](CO)NC(=O)[C@H](C)NC(=O)[C@H](CCCNC(=N)N)NC(=O)[C@H](CCCNC(=N)N)NC(=O)CNC(=O)[C@H](CC(C)C)NC(=O)[C@H](CO)NC(=O)[C@H](C)NC(=O)[C@H](CO)NC(=O)[C@H](CCCNC(=N)N)NC(=O)[C@H](CC(C)C)NC(=O)[C@H](Cc1ccccc1)NC(=O)CNC(=O)[C@@H](N)CCCNC(=N)N)C(=O)O. Briefly: purified protein, by the assay type. The settings on record: other: ADP-Glo; 3 nM PKAc, 1 mM ATP, 5 mM Mg2+, substrate 0-256 μM, room temperature 30 min; Michaelis-Menten fit; mean ± SD of n = 3 or 4; pH 7.4. In general terms: ADP-Glo first removes unused ATP, then detects ADP through luciferase.
Experimental: (§1) We used enzyme kinetics to investigate the activity of catalytic subunit of PKA (PKAc) toward the three target sites within the C terminus of CaV1.2. We performed discontinuous kinase assays using an ADP-GloMax Assay kit.
(§2) Kinase assays were conducted using an ADP-Glo Kinase Assay Kit (Promega). […] Therefore, we performed assays with excess ATP (1 mM) and Mg^2+ (5 mM) to saturate PKAc prior to substrate binding. Reagents were prepared as described in the kit, aliquoted, and frozen at −20 °C prior to use. Reactions were conducted in 384-well solid white polystyrene microplates (Corning). Peptide substrates and EFPreIQ were dissolved and/or diluted to 800 μM using 50 mM Hepes (pH 7.4), 150 mM KCl, 5 mM MgCl2, and 4 mM TCEP. […] For peptides lacking tryptophan, the amount of volume needed to achieve a concentration of 800 μM was calculated prior to dissolving. The peptides/substrate was 2-fold serially diluted using the same buffer to create 11 reactions per curve ranging from 0 to 256 μM. ATP was added to each reaction to achieve a final concentration of 1 mM. Reactions were initiated by the addition of thawed PKAc at a final concentration of 3 nM at a final well volume of 20 μl. After allowing reactions to occur at room temperature for 30 min, 3 × 5 ml from each reaction in a curve was taken and mixed with 5 ml ADP-Glo Reagent for a total of three technical replicates per biological replicate. After 40 min, 10 ml of kinase detection reagent was added to each technical replicate and, after waiting 60 min, relative luminescence unit were measured using a VICTOR X4 Multilabel Plate Reader (PerkinElmer).
(§3) The relative luminescence unit values were converted to specific activity values via interpolation of a standard curve that was created in accordance with the manufacturer’s protocol. The three technical replicates were averaged to calculate a biological replicate value and plotted against peptide concentration using GraphPad 9 (Prism) software (https://www.graphpad.com/updates/prism-900-release-notes). Technical replicate values resulting from experimental error were removed from the dataset and subsequent averaging. […] The Michaelis–Menten kinetics fitting function was used to generate a nonlinear regression to calculate both a Km constant and Vmax value for each biological replicate curve. These Km constant and Vmax values were averaged and SDs are reported. Figures displaying data points and Michaelis–Menten curves depict the average specific activity values calculated from all biological replicates in the three or four experiments (n = 3 or n = 4) per peptide (n = 4 for Ser1981 and Ser272 peptides, n = 3 for all others).

Series [2] deals with C[C@H](NC(=O)CN)C(=O)NCC(=O)N[C@@H](CCCNC(=N)N)C(=O)N[C@@H](CCC(=O)O)C(=O)N[C@@H](CCCNC(=N)N)C(=O)N[C@@H](CC(=O)O)C(=O)N[C@@H](CCCNC(=N)N)C(=O)N[C@@H](CCCNC(=N)N)C(=O)N[C@@H](CCCNC(=N)N)C(=O)NCC(=O)N[C@@H](CO)C(=O)N[C@H](C(=O)N1CCC[C@H]1C(=O)N[C@@H](Cc1c[nH]c2ccccc12)C(=O)O)[C@@H](C)O. In words: purified protein, by the assay type. The conditions noted are these: other: ADP-Glo; 3 nM PKAc, 1 mM ATP, 5 mM Mg2+, substrate 0-256 μM, room temperature 30 min; Michaelis-Menten fit; mean ± SD of n = 3 or 4; pH 7.4.
Experimental: as §1, §2, §3

Regarding “PKAc (catalytic subunit of PKA, PKAcα 16-351) (Mus musculus)”, in series [1], the Km amounted to 8.1 ± 2.5 µM, the kcat amounted to 15.5 ± 1.2 s⁻¹ and the kcat/Km was 1.9e+06 ± 600000 M⁻¹ s⁻¹. For the same substance, in series [2], the Km came to 19.0 ± 6.7 µM, the kcat is 16.2 ± 0.8 s⁻¹ and the catalytic efficiency (kcat/Km) is 900000 ± 300000 M⁻¹ s⁻¹.

For orientation: Km means the substrate concentration at which the rate is half of its maximum. A word on the kcat: it is the number of substrate molecules converted per active site and unit of time at saturation. By kcat/Km is commonly meant the turnover number divided by the Michaelis constant.
